Assay results from patent publication US11708423B2, “Chimeric engulfment receptor molecules and methods of use” (CERO THERAPEUTICS, INC., priority 2017, dated 2023).

B1: CER127: Tim4 binding and transmembrane domains, TRAF2 primary and TLR2 secondary signaling domains; SEQ ID NO:175 (protein)
chain: MSKGLLLLWLVTELWWLYLTPAASEDTIIGFLGQPVTLPCHYLSWSQSRNSMCWGKGSCPNSKCNAELLRTDGTRIISRKSTKYTLLGKVQFGEVSLTISNTNRGDSGVYCCRIEVPGWFNDVKKNVRLELRRATTTKKPTTTTRPTTTPYVTTTTPELLPTTVMTTSVLPTTTPPQTLATTAFSTAVTTCPSTTPGSFSQETTKGSAFTTESETLPASNHSQRSMMTISTDIAVLRPTGSNPGILPSTSQLTTQKTTLTTSESLQKTTKSHQINSRQTILIIACCVGFVLMVLLFLAFLMAAASVTPPGSLELLQPGFSKTLLGTKLEAKYLCSACRNVLRRPFQAQCGHRYCSFCLASILSSGPQNCAACVHEGIYEEGISILESSSAFPDNAARREVESLPAVCPSDGCTWKGTLKEYESCHEGRCPLMLTECPACKGLVRLGEKERHLEHECPERSLSCRHCRAPCCGADVKAHHEVCPKFPLTCDGCGKKKIPREKFQDHVKTCGKCRVPCRFHAIGCLETVEGEKQQEHEVQWLREHLAMLLSSVLEAKPLLGDQSHAGSELLQRCESLEKKTATFENIVCVLNREVERVAMTAEACHRFHGLWYMKMMWAWLQAKRKPRKAPSRNICYDAFVSYSERDAYWVENLMVQELENFNPPFKLCLHKRDFIPGKWIIDNIIDSIEKSHKTVFVLSENFVKSEWCKYELDFSHFRLFDENNDAAILILLEPIEKKAIPQRFCKLRKIMNTKTYLEWPMDEAQREGFWVNLRAAIKS
modifications: CER127 protein
B2: CER108: Tim4 binding and transmembrane domains, DAP12 primary and TLR8 secondary signaling domains; SEQ ID NO:137 (protein)
chain: MSKGLLLLWLVTELWWLYLTPAASEDTIIGFLGQPVTLPCHYLSWSQSRNSMCWGKGSCPNSKCNAELLRTDGTRIISRKSTKYTLLGKVQFGEVSLTISNTNRGDSGVYCCRIEVPGWFNDVKKNVRLELRRATTTKKPTTTTRPTTTPYVTTTTPELLPTTVMTTSVLPTTTPPQTLATTAFSTAVTTCPSTTPGSFSQETTKGSAFTTESETLPASNHSQRSMMTISTDIAVLRPTGSNPGILPSTSQLTTQKTTLTTSESLQKTTKSHQINSRQTILIIACCVGFVLMVLLFLAFLYFLGRLVPRGRGAAEAATRKQRITETESPYQELQGQRSDVYSDLNTQRPYYKHHLFYWDVWFIYNVCLAKVKGYRSLSTSQTFYDAYISYDTKDASVTDWVINELRYHLEESRDKNVLLCLEERDWDPGLAIIDNLMQSINQSKKTVFVLTKKYAKSWNFKTAFYLALQRLMDENMDVIIFILLEPVLQHSQYLRLRQRICKSSILQWPDNPKAEGLFWQTLRNVVLTENDSRYNNMYVDSIKQY
modifications: CER108 protein
B3: CER124: Tim4 binding and transmembrane domains, TLR2 primary and NFAM1 secondary signaling domains; SEQ ID NO:151 (protein)
chain: MSKGLLLLWLVTELWWLYLTPAASEDTIIGFLGQPVTLPCHYLSWSQSRNSMCWGKGSCPNSKCNAELLRTDGTRIISRKSTKYTLLGKVQFGEVSLTISNTNRGDSGVYCCRIEVPGWFNDVKKNVRLELRRATTTKKPTTTTRPTTTPYVTTTTPELLPTTVMTTSVLPTTTPPQTLATTAFSTAVTTCPSTTPGSFSQETTKGSAFTTESETLPASNHSQRSMMTISTDIAVLRPTGSNPGILPSTSQLTTQKTTLTTSESLQKTTKSHQINSRQTILIIACCVGFVLMVLLFLAFLHRFHGLWYMKMMWAWLQAKRKPRKAPSRNICYDAFVSYSERDAYWVENLMVQELENFNPPFKLCLHKRDFIPGKWIIDNIIDSIEKSHKTVFVLSENFVKSEWCKYELDFSHFRLFDENNDAAILILLEPIEKKAIPQRFCKLRKIMNTKTYLEWPMDEAQREGFWVNLRAAIKSLWNKKRMRGPGKDPTRKCPDPRSASSPKQHPSESVYTALQRRETEVYACIENEDGSSPTAKQSPLSQERPHRFEDDGELNLVYENL
modifications: CER124 protein
B4: CER30: Tim4 binding and transmembrane domains, Traf2 signaling domain; SEQ ID NO:96 (protein)
chain: MSKGLLLLWLVTELWWLYLTPAASEDTIIGFLGQPVTLPCHYLSWSQSRNSMCWGKGSCPNSKCNAELLRTDGTRIISRKSTKYTLLGKVQFGEVSLTISNTNRGDSGVYCCRIEVPGWFNDVKKNVRLELRRATTTKKPTTTTRPTTTPYVTTTTPELLPTTVMTTSVLPTTTPPQTLATTAFSTAVTTCPSTTPGSFSQETTKGSAFTTESETLPASNHSQRSMMTISTDIAVLRPTGSNPGILPSTSQLTTQKTTLTTSESLQKTTKSHQINSRQTILIIACCVGFVLMVLLFLAFLMAAASVTPPGSLELLQPGFSKTLLGTKLEAKYLCSACRNVLRRPFQAQCGHRYCSFCLASILSSGPQNCAACVHEGIYEEGISILESSSAFPDNAARREVESLPAVCPSDGCTWKGTLKEYESCHEGRCPLMLTECPACKGLVRLGEKERHLEHECPERSLSCRHCRAPCCGADVKAHHEVCPKFPLTCDGCGKKKIPREKFQDHVKTCGKCRVPCRFHAIGCLETVEGEKQQEHEVQWLREHLAMLLSSVLEAKPLLGDQSHAGSELLQRCESLEKKTATFENIVCVLNREVERVAMTAEAC
modifications: CER30 chimeric engulfment receptor
B5: CER129: Tim4 binding and transmembrane domains, TLR8 primary and TRAF2 secondary signaling domains; SEQ ID NO:177 (protein)
chain: MSKGLLLLWLVTELWWLYLTPAASEDTIIGFLGQPVTLPCHYLSWSQSRNSMCWGKGSCPNSKCNAELLRTDGTRIISRKSTKYTLLGKVQFGEVSLTISNTNRGDSGVYCCRIEVPGWFNDVKKNVRLELRRATTTKKPTTTTRPTTTPYVTTTTPELLPTTVMTTSVLPTTTPPQTLATTAFSTAVTTCPSTTPGSFSQETTKGSAFTTESETLPASNHSQRSMMTISTDIAVLRPTGSNPGILPSTSQLTTQKTTLTTSESLQKTTKSHQINSRQTILIIACCVGFVLMVLLFLAFLHHLFYWDVWFIYNVCLAKVKGYRSLSTSQTFYDAYISYDTKDASVTDWVINELRYHLEESRDKNVLLCLEERDWDPGLAIIDNLMQSINQSKKTVFVLTKKYAKSWNFKTAFYLALQRLMDENMDVIIFILLEPVLQHSQYLRLRQRICKSSILQWPDNPKAEGLFWQTLRNVVLTENDSRYNNMYVDSIKQYMAAASVTPPGSLELLQPGFSKTLLGTKLEAKYLCSACRNVLRRPFQAQCGHRYCSFCLASILSSGPQNCAACVHEGIYEEGISILESSSAFPDNAARREVESLPAVCPSDGCTWKGTLKEYESCHEGRCPLMLTECPACKGLVRLGEKERHLEHECPERSLSCRHCRAPCCGADVKAHHEVCPKFPLTCDGCGKKKIPREKFQDHVKTCGKCRVPCRFHAIGCLETVEGEKQQEHEVQWLREHLAMLLSSVLEAKPLLGDQSHAGSELLQRCESLEKKTATFENIVCVLNREVERVAMTAEAC
modifications: CER129 protein
B6: CER27: Tim4 binding and transmembrane domains, TLR2 signaling domain; SEQ ID NO:93 (protein)
chain: MSKGLLLLWLVTELWWLYLTPAASEDTIIGFLGQPVTLPCHYLSWSQSRNSMCWGKGSCPNSKCNAELLRTDGTRIISRKSTKYTLLGKVQFGEVSLTISNTNRGDSGVYCCRIEVPGWFNDVKKNVRLELRRATTTKKPTTTTRPTTTPYVTTTTPELLPTTVMTTSVLPTTTPPQTLATTAFSTAVTTCPSTTPGSFSQETTKGSAFTTESETLPASNHSQRSMMTISTDIAVLRPTGSNPGILPSTSQLTTQKTTLTTSESLQKTTKSHQINSRQTILIIACCVGFVLMVLLFLAFLHRFHGLWYMKMMWAWLQAKRKPRKAPSRNICYDAFVSYSERDAYWVENLMVQELENFNPPFKLCLHKRDFIPGKWIIDNIIDSIEKSHKTVFVLSENFVKSEWCKYELDFSHFRLFDENNDAAILILLEPIEKKAIPQRFCKLRKIMNTKTYLEWPMDEAQREGFWVNLRAAIKS
modifications: CER27 chimeric engulfment receptor

What follows are molecules tested on H1975 lung adenocarcinoma cells (assay: LDH assay, H1975 cells, 48 hours co-culture with 1 μM Osimeritinib). Details: E:T 1:1, 48 hours, CD4+ T cells.
Assay type: cell-based
Description: CER30 comprises a Tim4 binding domain, Tim4 transmembrane domain, and an engulfment signaling domain comprising a primary engulfment signaling domain comprising a TRAF2 signaling domain. CER30 has a polypeptide sequence as set forth in SEQ ID NO:96. CER110 has a polypeptide sequence of SEQ ID NO:125 and comprises a Tim4 binding domain, Tim4 transmembrane domain, and an engulfment signaling domain comprising a primary engulfment signaling domain comprising a TRAF6 signaling domain and a secondary engulfment signaling domain comprising a DAP12 signaling domain. CER112 has a polypeptide sequence of SEQ ID NO:128 and comprises a Tim4 binding domain, Tim4 transmembrane domain, and an engulfment signaling domain comprising a primary engulfment signaling domain comprising a TRAF6 signaling domain and a secondary engulfment signaling domain comprising a NFAM1 signaling domain. CER127 has a polypeptide sequence of SEQ ID NO:175 and comprises a Tim4 binding domain, Tim4 transmembrane domain, and an engulfment signaling domain comprising a primary engulfment signaling domain comprising a TRAF2 signaling domain and a secondary engulfment signaling domain comprising a TLR2 signaling domain. H1975 cells are more resistant to EGFR inhibitors, so Osimeritinib was used at slightly higher concentration. H1975 lung adenocarcinoma cells harboring an EGFR mutation were co-cultured with CER-expressing or mock-transduced (vector only) CD4+ T cells with 1 μM of Osimeritinib. After 48 hours of co-culture at a 1:1 effector:target cell ratio, T cells were washed away, and the number of viable H1975 cells was quantified using a calorimetric LDH assay (FIG. 57). Cell viability experiments were performed in triplicate and presented as % of control.

Molecule	killing of H1975 cells (LDH)
B1	synergistic killing of H1975 lung adenocarcinoma cells upon EGFR inhibition
B2	synergistic killing of H1975 lung adenocarcinoma cells upon EGFR inhibition
B3	synergistic killing of H1975 lung adenocarcinoma cells upon EGFR inhibition
B4	synergistic killing of H1975 lung adenocarcinoma cells upon EGFR inhibition
B5	synergistic killing of H1975 lung adenocarcinoma cells upon EGFR inhibition
B6	synergistic killing of H1975 lung adenocarcinoma cells upon EGFR inhibition
